{"source": "paper PMC8154891", "about": "“TAPBPR promotes antigen loading on MHC-I molecules using a peptide trap” (Nature Communications, 2021)", "molecules": {"B1": {"name": "TAPBPR WT: wild-type human TAPBPR; luminal domain from S2 cells in vitro, FLAG-tagged full length in Expi293F cells (protein, UniProt Q9BX59 19-468, looked up)", "Tapasin-related protein": "AETKPHPAEGQWRAVDVVLDCFLAKDGAHRGALASSEDRARASLVLKQVPVLDDGSLEDFTDFQGGTLAQDDPPIIFEASVDLVQIPQAEALLHADCSGKEVTCEISRYFLQMTETTVKTAAWFMANMQVSGGGPSISLVMKTPRVTKNEALWHPTLNLPLSPQGTVRTAVEFQVMTQTQSLSFLLGSSASLDCGFSMAPGLDLISVEWRLQHKGRGQLVYSWTAGQGQAVRKGATLEPAQLGMARDASLTLPGLTIQDEGTYICQITTSLYRAQQIIQLNIQASPKVRLSLANEALLPTLICDIAGYYPLDVVVTWTREELGGSPAQVSGASFSSLRQSVAGTYSISSSLTAEPGSAGATYTCQVTHISLEEPLGASTQVVPPERRTALGVIFASSLFLLALMFLGLQRRQAPTGLGLLQAERWETTSCADTQSSHLHEDRTARVSQPS", "modifications": "FLAG tag"}}, "key": {"[1]": {"target": "TAMRA-TAX9 in complex with HLA-A*02:01 (hβ2m) (human | HTLV-1)", "experiment": "fluorescence polarisation"}, "[2]": {"test_system": "HLA-A*02:01/hβ2m", "conditions": "DSF, 7 μM HLA-A*02:01/hβ2m in complex with the peptide, 10× SYPRO orange, 1 °C/min, pH 7.2; n = 3 technical replicates"}, "[3]": {"target": "T1, peptide-deficient HLA-A*02:01/hβ2m/TAPBPR^WT complex (Homo sapiens, UniProt P04439, D140Y/D185E/D98H/E176V/E277Q/G131W/G231S/I119V/I121R/I166T/I218V/L300P/L318F/N151K/N90K/P208A/P217A/Q86G/Q94H/R138H/R169H/T345S)", "T1 construct": "DNA plasmid constructs encoding the luminal domain of human HLA-A*02:01 (heavy chain); made in house; TAPBPR: Drosophila S2 cells", "experiment": "ITC, KD4: peptide titrated into empty HLA-A*02:01/TAPBPR^WT complex with excess TAPBPR", "format": "binding", "conditions": "~150–200 μM peptide into ~15 μM peptide-deficient complex and 50 μM excess TAPBPR, pH 7.2, one-site fit, error from fit"}, "[4]": {"target": "T2, peptide-deficient HLA-A*02:01/hβ2m/TAPBPR^ΔG24-R36 complex (Homo sapiens, UniProt P04439, D140Y/D185E/D98H/E176V/E277Q/G131W/G231S/I119V/I121R/I166T/I218V/L300P/L318F/N151K/N90K/P208A/P217A/Q86G/Q94H/R138H/R169H/T345S)", "T2 construct": "DNA plasmid constructs encoding the luminal domain of human HLA-A*02:01 (heavy chain); made in house", "experiment": "ITC, KD4: peptide titrated into empty HLA-A*02:01/TAPBPR^ΔG24-R36 complex with excess TAPBPR", "format": "binding", "conditions": "~150–200 μM peptide into ~15 μM peptide-deficient complex and 50 μM excess TAPBPR, pH 7.2, one-site fit, error from fit"}, "[5]": {"target": "T3, HLA-A*02:01/hβ2m (empty MHC-I released from TAPBPR^ΔG24-R36 complex) (Homo sapiens, UniProt P04439, D140Y/D185E/D98H/E176V/E277Q/G131W/G231S/I119V/I121R/I166T/I218V/L300P/L318F/N151K/N90K/P208A/P217A/Q86G/Q94H/R138H/R169H/T345S)", "T3 construct": "DNA plasmid constructs encoding the luminal domain of human HLA-A*02:01 (heavy chain); made in house", "experiment": "ITC, KD2,app: peptide titrated into peptide-deficient HLA-A*02:01/hβ2m/TAPBPR^ΔG24-R36 complex, no excess TAPBPR", "format": "binding", "conditions": "~50–100 μM peptide into ~15 μM peptide-deficient complex, pH 7.2, one-site fit, one technical replicate, error from fit"}, "[6]": {"target": "T4, HLA-A*02:01/hβ2m (empty MHC-I released from TAPBPR^WT complex) (Homo sapiens, UniProt P04439, D140Y/D185E/D98H/E176V/E277Q/G131W/G231S/I119V/I121R/I166T/I218V/L300P/L318F/N151K/N90K/P208A/P217A/Q86G/Q94H/R138H/R169H/T345S)", "T4 construct": "DNA plasmid constructs encoding the luminal domain of human HLA-A*02:01 (heavy chain); made in house; TAPBPR: Drosophila S2 cells", "experiment": "ITC, KD2,app: peptide titrated into peptide-deficient HLA-A*02:01/hβ2m/TAPBPR^WT complex, no excess TAPBPR", "format": "binding", "conditions": "~50–100 μM peptide into ~15 μM peptide-deficient complex, 50 mM NaCl, 20 mM sodium phosphate pH 7.2, one-site fit, one technical replicate, error from fit"}, "[7]": {"target": "peptide-deficient (empty) HLA-A*02:01/hβ2m (human)", "experiment": "ITC"}, "[8]": {"target": "TAPBPR^ΔG24-R36 (luminal domain, deletion of residues G24-R36) (human)", "experiment": "ITC"}, "[9]": {"target": "TAPBPR^WT (TAP-binding protein related, wild-type, luminal domain) (human)", "experiment": "ITC"}, "[10]": {"target": "TAX8/HLA-A*02:01/hβ2m", "experiment": "FP, KD3: TAPBPR titrated into TAMRA-TAX9 and TAX8/HLA-A*02:01/hβ2m", "format": "binding, human", "conditions": "TAPBPR (0–80 μM) titrated into 1 nM TAMRA-TAX9 and 50 nM TAX8/HLA-A*02:01/hβ2m; 25 °C, pH 7.2, 0.05% tween-20; read-out: KD3 from FP"}, "[11]": {"target": "MHC-I", "conditions": "read-out: estimated KD of the MHC-I/TAPBPR interaction; SPR experiments of an analogous system; cited from earlier work"}, "[12]": {"target": "HLA-A*01:01 (Homo sapiens, UniProt P04439, A114D/A174V/A182V/D101N/D185E/E176A/E190D/L180R/Q94H/R68K/S129P/T187R/V100A/V91M/W191G)", "conditions": "yeast-displayed TAPBPR, flow cytometry"}}, "note": "Where “and” joins values, the source holds several entries; their conditions need not be identical. Equal entries are not always repeated."}
{"molecule": "TAPBPR^ΔALAS (luminal domain, deletion of residues A29-S32) (domain or fragment)", "values": [{"measurement": "Kd", "setting": "[1]", "result": 2000, "unit": "nM"}]}
{"molecule": "LLFGGGGYPVYV [TAX12]", "values": [{"measurement": "Tm of pMHC-I complex", "setting": "[2]", "result": 53.2, "unit": "°C"}]}
{"molecule": "CC[C@H](C)[C@H](NC(=O)[C@H](CCC(=O)O)NC(=O)[C@H](CC(C)C)NC(=O)[C@H](CC(C)C)NC(=O)[C@@H](N)CCCCN)C(=O)N1CCC[C@H]1C(=O)N[C@@H](CC(=O)O)C(=O)N1CCC[C@H]1C(=O)N[C@@H](CC(=O)O)C(=O)N[C@@H](CCCCN)C(=O)N[C@@H](CC(N)=O)C(=O)N[C@@H](Cc1c[nH]c2ccccc12)C(=O)N[C@@H](C)C(=O)N[C@H](C(=O)N[C@@H](CC(C)C)C(=O)O)[C@@H](C)O", "note": "[KLL15]", "values": [{"measurement": "Kd", "setting": "[3]", "result": "21600 ± 7000", "unit": "nM"}, {"measurement": "Kd", "setting": "[4]", "result": "49500 ± 8600", "unit": "nM"}, {"measurement": "Kd", "setting": "[5]", "result": "334 ± 20", "unit": "nM"}, {"measurement": "Kd", "setting": "[6]", "result": "383 ± 22", "unit": "nM"}]}
{"molecule": "TAPBPR^ΔG24-R36 (luminal domain, deletion of residues G24-R36) (domain or fragment)", "values": [{"measurement": "Kd", "setting": "[1]", "result": 2000, "unit": "nM"}, {"measurement": "Kd", "setting": "[7]", "result": "13.9 nM and 11.1 nM and 14.2 nM"}]}
{"molecule": "TAX9/HLA-A*02:01/hβ2m (from UniProt P61769 21-119) (peptide-MHC)", "values": [{"measurement": "Kd", "setting": "[8]", "result": 1800, "unit": "nM"}, {"measurement": "Kd", "setting": "[9]", "result": 1900, "unit": "nM"}, {"measurement": "stoichiometry N", "setting": "[9]", "result": 1.02}]}
{"molecule": "TAPBPR^WT (TAP-binding protein related, wild-type, luminal domain) (domain or fragment)", "values": [{"measurement": "Kd", "setting": "[1]", "result": 2000, "unit": "nM"}, {"measurement": "Kd", "setting": "[7]", "result": "37.4 nM and 30.6 nM and 38.8 nM"}]}
{"molecule": "LLFGGYPVYV [TAX10]", "values": [{"measurement": "Tm of pMHC-I complex", "setting": "[2]", "result": 58.9, "unit": "°C"}]}
{"molecule": "B1", "values": [{"measurement": "Kd", "setting": "[10]", "result": "~2000", "unit": "nM"}, {"measurement": "Kd", "setting": "[11]", "result": "~190", "unit": "nM"}, {"measurement": "binding of HLA-A*01:01 tetramers", "setting": "[12]", "result": "No binding"}]}
